Test results reported in article PMC12629992.

Molecular target: native myeloperoxidase monomer (one heavy and one light chain) (human) (UniProt P05164)
Assay: mass photometry; native MPO 100 nM in 20 mM HEPES pH 7.5, 200 mM NaCl, without or with 10 or 50 mM DTT, diluted 1:10 before measuring; dimer to monomers

- stoichiometry N: 2
Substance: native myeloperoxidase monomer (one heavy and one light chain) (from UniProt P05164 279-745) (enzyme)
